Results published in article PMC7998035.

Key:
Test in all cases: ELISA; ECM protein coated on the plate (100 nM in PBS, 1 h, 37 °C), blocked with 1% BSA in PBS-T; IL-1Ra or PDGF-BB variants at 0 to 100 nM in PBS-T with 0.1% BSA, 1 h, room temperature; bound protein detected with biotinylated antibodies (DuoSet); specific binding fitted with a one site-specific binding model; means of 3 independent experiments
human tenascin C (human) = human tenascin C (human) (UniProt P24821)
[1] = biological target: human vitronectin (human) (UniProt P04004)
[2] = biological target: human plasma fibronectin (human)
Chain of human plasma fibronectin (human) (P02751 other isoform, or with tags, fused parts or gaps): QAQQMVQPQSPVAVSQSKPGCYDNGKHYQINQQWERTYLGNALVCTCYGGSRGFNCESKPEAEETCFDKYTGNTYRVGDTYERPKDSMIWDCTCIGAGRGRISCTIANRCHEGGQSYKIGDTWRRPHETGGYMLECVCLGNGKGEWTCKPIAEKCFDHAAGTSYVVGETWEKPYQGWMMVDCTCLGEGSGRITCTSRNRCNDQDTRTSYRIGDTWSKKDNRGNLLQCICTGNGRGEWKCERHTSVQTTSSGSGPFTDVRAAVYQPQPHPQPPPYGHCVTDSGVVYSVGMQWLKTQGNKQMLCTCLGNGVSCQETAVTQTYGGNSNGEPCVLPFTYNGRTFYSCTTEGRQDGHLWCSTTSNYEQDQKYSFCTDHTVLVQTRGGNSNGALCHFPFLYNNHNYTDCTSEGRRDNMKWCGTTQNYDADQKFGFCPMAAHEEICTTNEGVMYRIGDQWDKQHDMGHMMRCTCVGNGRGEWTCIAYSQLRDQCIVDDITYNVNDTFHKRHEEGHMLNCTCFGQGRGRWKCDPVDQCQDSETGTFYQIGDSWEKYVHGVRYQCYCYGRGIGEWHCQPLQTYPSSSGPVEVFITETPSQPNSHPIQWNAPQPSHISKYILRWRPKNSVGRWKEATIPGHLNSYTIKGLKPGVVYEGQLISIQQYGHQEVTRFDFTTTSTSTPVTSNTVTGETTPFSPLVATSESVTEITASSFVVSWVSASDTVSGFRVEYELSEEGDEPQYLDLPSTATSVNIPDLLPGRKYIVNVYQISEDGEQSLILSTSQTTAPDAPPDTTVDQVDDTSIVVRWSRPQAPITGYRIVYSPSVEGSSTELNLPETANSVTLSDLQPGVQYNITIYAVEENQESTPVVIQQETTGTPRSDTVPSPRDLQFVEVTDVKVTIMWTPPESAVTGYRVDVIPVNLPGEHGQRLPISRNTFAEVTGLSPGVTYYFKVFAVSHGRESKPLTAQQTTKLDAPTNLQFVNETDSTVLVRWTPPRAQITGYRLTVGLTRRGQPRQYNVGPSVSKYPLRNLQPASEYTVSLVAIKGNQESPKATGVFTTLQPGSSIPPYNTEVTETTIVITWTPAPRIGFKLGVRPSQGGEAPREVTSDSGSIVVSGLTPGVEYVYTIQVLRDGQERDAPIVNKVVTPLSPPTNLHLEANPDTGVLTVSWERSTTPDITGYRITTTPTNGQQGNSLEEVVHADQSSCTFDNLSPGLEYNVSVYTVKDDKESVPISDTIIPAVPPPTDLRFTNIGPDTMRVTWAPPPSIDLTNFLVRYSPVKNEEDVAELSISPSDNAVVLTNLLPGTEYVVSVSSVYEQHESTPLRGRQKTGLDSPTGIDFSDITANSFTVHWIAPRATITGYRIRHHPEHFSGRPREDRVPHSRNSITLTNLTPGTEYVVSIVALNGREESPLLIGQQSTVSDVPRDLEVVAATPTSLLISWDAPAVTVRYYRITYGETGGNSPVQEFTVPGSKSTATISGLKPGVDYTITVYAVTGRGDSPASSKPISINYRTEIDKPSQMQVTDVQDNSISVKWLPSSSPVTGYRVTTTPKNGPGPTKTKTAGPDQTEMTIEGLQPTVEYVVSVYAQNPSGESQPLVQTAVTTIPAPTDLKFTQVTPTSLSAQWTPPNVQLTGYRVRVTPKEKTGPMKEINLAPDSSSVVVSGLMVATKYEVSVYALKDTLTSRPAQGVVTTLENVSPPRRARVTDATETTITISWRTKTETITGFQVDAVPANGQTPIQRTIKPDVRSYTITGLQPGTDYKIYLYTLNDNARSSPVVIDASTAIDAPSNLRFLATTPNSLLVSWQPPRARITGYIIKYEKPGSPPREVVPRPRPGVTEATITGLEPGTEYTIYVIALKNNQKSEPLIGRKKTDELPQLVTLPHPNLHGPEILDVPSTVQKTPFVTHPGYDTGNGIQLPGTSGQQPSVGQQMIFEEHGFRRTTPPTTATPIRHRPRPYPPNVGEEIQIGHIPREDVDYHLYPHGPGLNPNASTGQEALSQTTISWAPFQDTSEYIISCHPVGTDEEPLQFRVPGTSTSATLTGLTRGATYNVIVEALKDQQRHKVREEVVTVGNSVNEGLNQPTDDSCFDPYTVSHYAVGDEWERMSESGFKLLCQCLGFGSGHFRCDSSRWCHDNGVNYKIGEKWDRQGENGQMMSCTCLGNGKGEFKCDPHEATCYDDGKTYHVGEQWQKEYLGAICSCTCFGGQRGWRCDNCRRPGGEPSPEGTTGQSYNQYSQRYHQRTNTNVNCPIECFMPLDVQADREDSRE

Chain of human vitronectin (human) (P04004 20-478): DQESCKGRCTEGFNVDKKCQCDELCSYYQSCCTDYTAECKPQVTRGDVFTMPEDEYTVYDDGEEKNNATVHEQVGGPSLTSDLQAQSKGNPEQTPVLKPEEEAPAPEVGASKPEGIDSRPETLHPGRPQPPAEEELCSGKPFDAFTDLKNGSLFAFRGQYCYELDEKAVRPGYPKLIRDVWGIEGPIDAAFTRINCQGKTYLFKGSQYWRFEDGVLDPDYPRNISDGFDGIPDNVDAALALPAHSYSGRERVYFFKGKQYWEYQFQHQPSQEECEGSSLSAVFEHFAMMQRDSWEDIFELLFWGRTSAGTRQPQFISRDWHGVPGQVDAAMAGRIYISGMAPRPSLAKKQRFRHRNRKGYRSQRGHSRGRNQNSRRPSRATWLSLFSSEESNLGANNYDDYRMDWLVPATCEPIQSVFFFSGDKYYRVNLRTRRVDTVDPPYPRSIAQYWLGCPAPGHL
Chain of human tenascin C (human) (P24821 23-2201): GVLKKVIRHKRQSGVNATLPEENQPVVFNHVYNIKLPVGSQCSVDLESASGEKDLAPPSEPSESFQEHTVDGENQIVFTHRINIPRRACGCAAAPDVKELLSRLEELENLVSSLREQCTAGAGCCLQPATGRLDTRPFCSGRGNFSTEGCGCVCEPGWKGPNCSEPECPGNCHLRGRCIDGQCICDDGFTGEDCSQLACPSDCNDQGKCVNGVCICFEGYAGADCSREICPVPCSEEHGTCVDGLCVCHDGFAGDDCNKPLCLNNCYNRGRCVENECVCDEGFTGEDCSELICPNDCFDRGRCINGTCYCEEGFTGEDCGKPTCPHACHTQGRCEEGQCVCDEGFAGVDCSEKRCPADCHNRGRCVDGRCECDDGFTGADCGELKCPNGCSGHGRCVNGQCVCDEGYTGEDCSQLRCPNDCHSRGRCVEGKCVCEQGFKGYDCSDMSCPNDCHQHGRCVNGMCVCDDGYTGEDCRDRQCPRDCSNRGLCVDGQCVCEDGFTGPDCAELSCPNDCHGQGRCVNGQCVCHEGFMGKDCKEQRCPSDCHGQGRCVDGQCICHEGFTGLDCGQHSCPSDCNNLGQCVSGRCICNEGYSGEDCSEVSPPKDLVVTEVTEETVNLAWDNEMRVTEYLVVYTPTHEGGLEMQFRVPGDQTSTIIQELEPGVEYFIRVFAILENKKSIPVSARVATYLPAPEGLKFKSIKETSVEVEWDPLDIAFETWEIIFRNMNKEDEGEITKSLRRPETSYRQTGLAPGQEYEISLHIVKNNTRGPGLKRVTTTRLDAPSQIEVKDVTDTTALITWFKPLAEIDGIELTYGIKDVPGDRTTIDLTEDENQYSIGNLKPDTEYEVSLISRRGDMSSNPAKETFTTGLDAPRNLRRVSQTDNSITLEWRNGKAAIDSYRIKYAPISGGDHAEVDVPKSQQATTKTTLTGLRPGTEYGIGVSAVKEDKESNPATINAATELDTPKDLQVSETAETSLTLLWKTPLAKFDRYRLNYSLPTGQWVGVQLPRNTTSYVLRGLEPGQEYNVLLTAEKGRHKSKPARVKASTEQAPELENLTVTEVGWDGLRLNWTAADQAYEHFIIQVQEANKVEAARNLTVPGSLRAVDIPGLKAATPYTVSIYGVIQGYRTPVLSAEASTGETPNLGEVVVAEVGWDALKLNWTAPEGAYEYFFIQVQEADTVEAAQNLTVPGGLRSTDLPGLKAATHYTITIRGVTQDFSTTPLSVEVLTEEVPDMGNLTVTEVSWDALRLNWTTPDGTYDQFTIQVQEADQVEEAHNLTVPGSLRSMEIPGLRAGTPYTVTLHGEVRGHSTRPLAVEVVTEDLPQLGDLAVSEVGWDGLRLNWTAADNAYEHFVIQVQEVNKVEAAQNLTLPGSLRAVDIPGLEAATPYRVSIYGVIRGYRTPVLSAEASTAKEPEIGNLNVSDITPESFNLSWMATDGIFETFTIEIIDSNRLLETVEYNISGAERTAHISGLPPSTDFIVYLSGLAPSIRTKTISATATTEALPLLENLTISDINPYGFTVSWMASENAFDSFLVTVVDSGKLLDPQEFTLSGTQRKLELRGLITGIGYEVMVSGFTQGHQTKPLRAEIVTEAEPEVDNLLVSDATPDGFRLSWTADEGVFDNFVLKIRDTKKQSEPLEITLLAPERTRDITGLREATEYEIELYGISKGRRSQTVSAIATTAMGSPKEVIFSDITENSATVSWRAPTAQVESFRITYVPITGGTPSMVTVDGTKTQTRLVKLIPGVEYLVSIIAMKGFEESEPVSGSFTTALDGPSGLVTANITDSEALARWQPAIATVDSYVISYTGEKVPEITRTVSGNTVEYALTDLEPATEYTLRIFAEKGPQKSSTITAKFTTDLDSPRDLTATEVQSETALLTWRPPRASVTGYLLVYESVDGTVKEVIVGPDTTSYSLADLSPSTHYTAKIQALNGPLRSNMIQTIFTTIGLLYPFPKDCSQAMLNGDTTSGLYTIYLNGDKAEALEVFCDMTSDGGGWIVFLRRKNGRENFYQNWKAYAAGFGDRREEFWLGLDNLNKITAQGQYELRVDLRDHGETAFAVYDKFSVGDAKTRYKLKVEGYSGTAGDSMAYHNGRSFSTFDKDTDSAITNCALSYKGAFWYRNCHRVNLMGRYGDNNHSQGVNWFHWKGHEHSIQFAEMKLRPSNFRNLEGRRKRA

Substance	Kd (human tenascin C (human)) [nM]	Kd [1] [nM]	Kd [2] [nM]
IL-1Ra/PlGF123-141	20.3	0.7	–
PDGF-BB/PlGF123-141 (other; other documents disagree on this pair)	–	–	17.7
IL-1Ra/PlGF123-141 (other; other documents disagree on this pair)	–	–	21.9
PDGF-BB/PlGF123-141	25	1.4	–
